Source: US20260209316A1 (US Dept. of Health and Human Services, published 2026)

Columns and labels:
[1] = target: T1, SUDV GP on pseudotyped lentiviral vector (Sudan virus (SUDV), UniProt Q7T9D9 33-676); test: cell-based or functional assay
T1 sequence: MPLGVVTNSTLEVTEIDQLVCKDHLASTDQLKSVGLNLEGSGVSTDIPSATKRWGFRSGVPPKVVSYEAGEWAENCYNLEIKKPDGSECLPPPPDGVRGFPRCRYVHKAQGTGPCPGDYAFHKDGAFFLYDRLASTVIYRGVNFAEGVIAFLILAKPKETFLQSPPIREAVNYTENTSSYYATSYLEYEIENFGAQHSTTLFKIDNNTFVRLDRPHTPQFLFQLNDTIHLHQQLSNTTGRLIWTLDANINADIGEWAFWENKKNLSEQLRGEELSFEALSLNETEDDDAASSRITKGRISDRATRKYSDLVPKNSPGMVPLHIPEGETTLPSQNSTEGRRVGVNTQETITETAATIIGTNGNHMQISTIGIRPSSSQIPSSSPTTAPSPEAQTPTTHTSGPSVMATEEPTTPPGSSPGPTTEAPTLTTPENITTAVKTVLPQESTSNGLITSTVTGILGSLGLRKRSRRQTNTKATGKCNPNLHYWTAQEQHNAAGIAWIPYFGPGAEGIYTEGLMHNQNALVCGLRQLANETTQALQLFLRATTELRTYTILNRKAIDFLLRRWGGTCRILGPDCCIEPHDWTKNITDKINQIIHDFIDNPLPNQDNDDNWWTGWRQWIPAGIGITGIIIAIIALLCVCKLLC

[2] = target: T2, full-length Sudan GP (GPFL) (Sudan virus (SUDV), UniProt Q7T9D9 33-650); test: ELISA on coated GP
T2 construct: also called Sudan GPFL; GP(S)FL
T2 sequence: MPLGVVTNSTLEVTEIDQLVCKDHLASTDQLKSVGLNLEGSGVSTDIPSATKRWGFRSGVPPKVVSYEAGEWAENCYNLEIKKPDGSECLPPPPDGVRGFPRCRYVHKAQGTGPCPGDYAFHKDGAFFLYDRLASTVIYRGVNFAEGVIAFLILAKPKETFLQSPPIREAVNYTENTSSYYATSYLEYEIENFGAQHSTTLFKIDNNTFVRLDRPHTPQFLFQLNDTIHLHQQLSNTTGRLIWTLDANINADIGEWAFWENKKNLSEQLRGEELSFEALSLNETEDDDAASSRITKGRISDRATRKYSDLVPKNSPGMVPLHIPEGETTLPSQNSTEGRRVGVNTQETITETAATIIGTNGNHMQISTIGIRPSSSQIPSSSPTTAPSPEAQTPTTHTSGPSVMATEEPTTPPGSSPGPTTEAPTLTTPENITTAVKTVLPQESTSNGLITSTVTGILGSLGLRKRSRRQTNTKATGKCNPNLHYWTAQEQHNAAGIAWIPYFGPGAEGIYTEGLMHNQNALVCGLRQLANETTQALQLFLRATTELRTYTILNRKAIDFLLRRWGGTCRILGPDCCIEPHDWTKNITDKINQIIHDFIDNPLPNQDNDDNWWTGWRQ

[3] = target: T2, full-length Sudan GP (GPFL); test: BLI, Fab, pH 7.4
[4] = target: T2, full-length Sudan GP (GPFL); test: BLI, Fab, pH 5.3

B1: antibody 203S (antibody, V domains shown)
VH: QVQLVQSGAEVKKPGSSVKVSCKASGGTFSSYAISWVRQAPGQGLEWLGRILPALGLANYAQKYQDRVKITADKSTSTAYMELSRLGSEDTAVYYCARDRWVGAARRGQYFDYWGQGTQVTVSS
VL: DIQMTQSPATLSASVGDRVTITCRASQSIGTWLAWYQQKPGKAPKLLIYDASSLESGVPPRFSGSGSETEFTLTISSLQPDDFATYYCHQYKSYSYTFGQGTKLEIK
- IC50, microneutralization of GP-pseudotyped lentiviral vector on HEK293 cells [1]: 0.04 µg/mL
- EC50 [2]: 0.5 µg/mL

B2: antibody 315S (antibody, V domains shown)
VH: EVQLVESGGGVVQPGRSLRLSCAASGFTFKTYTMHWVRQAPGKGLEWVAVITDDGVNKKYADSVKGRFTISRDNSKNTLYLQMNSLRLEDTAVYYCARSVVVLAAYPLDYWGQGTMVTVSS
VL: DIQMTQSPSSLSASVGDRVTITCRASQTISTYLHWYQQRPGKAPKLLIYAASSLQSGVPSRVSGSGSGTDFTLTITSLQPEDFATYYCLQTYSLPLTFGGGTNVEIK
- IC50, microneutralization of GP-pseudotyped lentiviral vector on HEK293 cells [1]: 0.15 µg/mL
- EC50 [2]: 0.01 µg/mL

B3: antibody 377S (antibody, V domains shown)
VH: QVQLVQSGAEVKKPGSSVKVSCKASGGTFSNYAINWVRQAPGQGLEWMGRTIPFLGLTNYAENFQARVTITADKSTGTSYMQLSSLRSEDTAVYFCAKAATSGWSPFDNWGQGTLVTVSS
VL: EIVLTQSPGTLSLSPGERATLSCRASQSISSSYFGWYQQKPGQAPRLLIYGASRRAAGIPDRFSCSGSGTDFTLTISRLEPEDFGVYYCQQYGSSPTFGQGTKVEIK
- IC50, microneutralization of GP-pseudotyped lentiviral vector on HEK293 cells [1]: 0.56 µg/mL
- EC50 [2]: 0.14 µg/mL

B4: antibody 528S (antibody, V domains shown)
VH: EVQLAESGGGVVQPGRSLRLSCAASGFTFNSYGMHWVRQAPGKGLEWVAVIWDDGSKKYYADSVKGRFTISRDNSKNTLFLQMNSLRAEDTAVYYCARETIMFTFGEVIVSSRDNYYMDVWGKGTTVTVSS
VL: EIVLTQSPATLSLSPGERATLSCRASQSVSNYLAWYQQKPGQAPRLLIYDASTRAIGIPARFSGVGSGTDFTLTISSLEPEDFAVYYCQQRSNWPPLTFGGGTKVEIK
- IC50, microneutralization of GP-pseudotyped lentiviral vector on HEK293 cells [1]: 0.58 µg/mL
- EC50 [2]: 0.05 µg/mL

B5: antibody 338S (antibody, V domains shown)
VH: EVQLVESGGGVVQPGRSLRLSCAASGFTFSQYGMHWVRQAPGKGLECVAVIWFDGSKKYYGDSVKGRFTISRDNSKNTLYLQMNSLRAEDTAVYFCARESLYYYDSGGHYYERGRIDYWGQGTLVTVSS
VL: DIQMTQSPSSLSASVGDRVTITCRASQDISNFLAWFQQKPGKAPKSLIYAASSLLSGVPSKFSGSGSGTDFTLTISSLQPEDFATYYCQQYNSYPPTFGQGTKLEIK
- IC50, microneutralization of GP-pseudotyped lentiviral vector on HEK293 cells [1]: 0.6 µg/mL
- EC50 [2]: 0.03 µg/mL

B6: antibody 335S (antibody, V domains shown)
VH: EVQLVESGGGVVQPGRSLRLSCAASGFSFSNYAMHWVRQAPGKGLEWVAVTWYDGSSKYHADSVKGRFTISRDNSKNTLYLQMNSLRAEDTAVYYCARWGMGIVASPGNVLNYYYFMDVWGQGTTVIVSS
VL: SYELTQPPSVSVSPGQTARITCSGNPLPKKHTYWYQQKPGQAPVLMIYKDSERPSRIPERFSGSSSGTTVTLTISGVQAEDEADYYCQSADSTGIVVFGGGTKLTVL
- IC50, microneutralization of GP-pseudotyped lentiviral vector on HEK293 cells [1]: 0.63 µg/mL
- EC50 [2]: 0.02 µg/mL

B7: antibody 285S (antibody, V domains shown)
VH: QVQLVQSGAEVKKPGSSVKVSCKASGGTFSTYAITWVRQAPGQGLEWMGRIIPILRVANYAQKFQGRVTITADSSTSTAYMELSSLRSEDTAVYYCANLLAYCGGDCRSDYWGQGTLVTVSS
VL: EIVLTQSPGTLSLSPGERATLSCRASQSVKNSYLAWYHQKPGQAPRLLIYGASSRATGIPDRFSGSGSGTDFTLTISRLEPEDFAVYYCQQYGSSLWTFGQGTKVDVK
- IC50, microneutralization of GP-pseudotyped lentiviral vector on HEK293 cells [1]: 0.64 µg/mL
- EC50 [2]: 0.02 µg/mL

B8: Fab generated from 573S (Fab, V domains shown)
VH: EVQLVESGGGLVKPGGSLRLSCAASGFTFSSYTMNWVRQAPGKGLEWVSCIRSSSSDKYYADSVKGRFTISRDNTKNSLYLQMNSLRADDTAVYYCARDLGGANNRYYFDYGMDVWGQGTTVTVSS
VL: EIVMTQSPATLSVSPGGRATLSCRASQSVYTNLAWYQQKPGQAPRLLIYDASTRATGIPARFSGSGSGTEFTLTISSLQCEDFAVYYCQHYNNWPLYTFGQGTKLEIK
notes: also called 573S Fab
- Kd [3]: 24.1 nM
- koff [3]: 0.000252 s⁻¹
- kon [3]: 10500 M⁻¹ s⁻¹
- Kd [4]: 9.27 nM
- koff [4]: 0.000105 s⁻¹
- kon [4]: 11300 M⁻¹ s⁻¹

B9: Fab generated from 541S (Fab, V domains shown)
VH: QVQLVQSGAEVKKPGASVKVSCKASGYTFTNYAITWVRQAPGQGLEWMGWISAFNGQINYAQKFQGRVAMTTDTSTSTAYMELRSLRSDDTAVYYCARAPPMWFSGAKFDYWGQGTLVTVSS
VL: QSVLTQPPSVSGTPGQRVTISCSGSSSNIGSNTVNWYQQLPGTAPKLLIYSNDQRPSGVPDRFSGSKSGTSASLAISGLRSEDEADYYCAAWDETLRRVFGGGTRLTVL
notes: also called 541S Fab
- Kd [3]: 39.5 nM
- koff [3]: 0.000482 s⁻¹
- kon [3]: 12200 M⁻¹ s⁻¹
- Kd [4]: 44.3 nM
- koff [4]: 0.000322 s⁻¹
- kon [4]: 7260 M⁻¹ s⁻¹

B10: Fab generated from 294S (Fab, V domains shown)
VH: QVQLQESGPGLVKPSQTLSLTCTVSGGSISSGGYHWSWIRQHPGKGLEWIGNIYYNGRTYYNPSLKSRVTISVDTSENEFSLKLSSVTAADTAVYYCARDRRRPRIGHDYGMDVWGQGTKVIVSS
VL: DIQMTQSPSSLSASVGDRVTISCRASQSISNFLNWYQQKPGQAPKLLIYTASNLQSGVPSRFSGSGSGTDFTLTISSLQPEDFATYYCQQIYNTGMYSFGQGTKLEIK
notes: also called 294S Fab
- Kd [3]: 4.3 nM
- koff [3]: 0.00135 s⁻¹
- kon [3]: 314000 M⁻¹ s⁻¹
- Kd [4]: 2.18 nM
- koff [4]: 0.000377 s⁻¹
- kon [4]: 173000 M⁻¹ s⁻¹

B11: Fab generated from 241S (Fab, V domains shown)
VH: QVQLVQSGSELKKPGASVKVSCKASGYTFTSYTVNWVRQAPGQGLEWMGWINTNTGNPTYAQGFTGRFVFSSDTSVSTAYLQISDLKAEDTAMYYCARHVAYDLWSGHTVTFDHWGQGTLVTVSS
VL: QSALTQPPSASGSPGQSVTISCTGTSSDVGAYNYVSWYQQHPGKAPKLIIYEVTKRPSGVPDRFSGSKSGNTASLTVSGLQAEDEADYYCSSKAGGKTYVFGTGTKVTVL
- Kd [3]: 3.47 nM
- koff [3]: 0.000439 s⁻¹
- kon [3]: 127000 M⁻¹ s⁻¹
- Kd [4]: 6.36 nM
- koff [4]: 0.000433 s⁻¹
- kon [4]: 68200 M⁻¹ s⁻¹

B12: Fab generated from 354S (Fab, V domains shown)
VH: QVQLVQSGAEVKKPGASVKVSCKASGYSFASYYIHWVRQAPGQGLEWMGIINPSGGTTSYAQKFQGRVTMTRDTSTSTVYMELSSLGSEDTAVYYCARIVDRVTIYLNGVDNYWGQGTLVTVSS
VL: EIVMTQSPATLSVSPGERVTLSCRASQSVSSNLAWFQQTPGQAPRLLIYGASTRASGVPARFSGSGSGTEFTLTISSLQSEDFAVYYCLQYNNWPPGWKYGFGQGTKLEIK
notes: also called 354S Fab
- Kd [3]: 8.89 nM
- koff [3]: 0.00076 s⁻¹
- kon [3]: 85600 M⁻¹ s⁻¹
- Kd [4]: 6.12 nM
- koff [4]: 0.000445 s⁻¹
- kon [4]: 72700 M⁻¹ s⁻¹

B13: Fab generated from 233S (Fab, V domains shown)
VH: EVQLVESGGGLGQPGGSLRLSCAASGFKFKIFGMNWVRQAPGKGLEWVSYISSRSSIIYYADSVKGRFTISRDDATNSLFLQMNSLRDEDTAMYYCVRDYNLIDFVWGSLFDYWGQGILVTVSS
VL: AIRMTQSPSSLSASTGDSVTITCRASQNIASYLAWYQQIPGKAPKLLIYVASTLQSGVPSRFSGSGSGTDFTLTISSLQSEDFATYYCQQYYRYPPTFGQGTKVEIK
- Kd [3]: 7.53 nM
- koff [3]: 0.000543 s⁻¹
- kon [3]: 72100 M⁻¹ s⁻¹
- Kd [4]: 7.56 nM
- koff [4]: 0.000358 s⁻¹
- kon [4]: 47300 M⁻¹ s⁻¹

B14: Fab generated from 503S (Fab, V domains shown)
VH: QVQLVQSGAEVKKPGASVRVSCKASGYTFTSYYMHWVRQAPGQGLEWMGQINPSGGTTRYERKFQGRITVTRDTSTSTVYLELSSLRSEDTASYFCACLRDKVTYYDLWSGVDSVWGQGTLVTVSS
VL: DIQMTQSPSSLSASVGDRVTITCRASQDISTWLAWYQQKPEKAPKSLIYAASTLETGVPSRFSGSGSGTDFTLTISSLQPEDFATYYCEQYNGFPRTFGQGTKLDIK
notes: also called 503S Fab
- Kd [3]: 19.5 nM
- koff [3]: 0.00111 s⁻¹
- kon [3]: 56800 M⁻¹ s⁻¹
- Kd [4]: 6.58 nM
- koff [4]: 0.000373 s⁻¹
- kon [4]: 56700 M⁻¹ s⁻¹
